Measured values reported in patent publication US11441131B2, “Heparosan synthases and use thereof for saccharide synthesis” (The Regents of the University of California, priority 2019, dated 2022).

Key:
[1] = Relative activity comparison with acceptor GlcAβProNHFmoc (O1) and UDP-GlcNAc; assay type: biochemical; conditions: for GlcNAcα1-4GlcAβProNHFmoc (%): percentage conversion, 30 min, HPLC
Method: (§1) Reactions were stopped by heating reaction mixtures at 70° C. for 10 min, followed by incubation on ice for 30 min and centrifugation at 11,337 g for 15 min.

[2] = Survival of lyophilization assay; assay type: physicochemical; conditions: dialysis, rehydration, compared with freshly prepared enzyme
Method: Survival of lyophilization assays. […] The resulting powders were stored at −80° C. for 3 days. For activity assays, the dried powder was dissolved in water. […] Chromatographic separation and detection were achieved similarly as described above for the kinetics studies except that an isocratic flow (0.3 mL/min) of a mixed solvent (32% acetonitrile/68% water with 0.1% TFA) was used for elution.

[3] = Effect of UDP concentration on reverse glycosylation activity; assay type: biochemical; conditions: O6 1 mM, enzyme 15 μM
Method: Reactions were stopped by heating reaction mixtures at 70° C. for 10 min followed by incubation on ice for 30 min, and centrifugation at 11,337 g for 15 min. Supernatants were analyzed using an Infinity 1290 II HPLC equipped with 1260 Infinity II Diode Array Detector WR (monitored at 254 nm, Agilent Technologies, CA). An AdvanceBio Glycan Mapping column (1.8 μm particle, 2.1×150 mm, Agilent Technologies, CA) was used with a gradient (13 min) of 0.5 mL/min for 90% to 70% acetonitrile and a solution of water with 0.1% TFA for analysis.

[4] = Thermostability assay; assay type: physicochemical; conditions: 30 min incubation at 25-50 °C
Method: Thermostability assays. […] UHPLC detection was carried out similarly as described above for kinetics studies.

[5] = Behaviour during dialysis; assay type: physicochemical
[6] = Protein expression and purification; parameters: species or system E. coli BL21 (DE3); conditions: per L culture
Method: Protein expression and purification. The plasmid-bearing E. coli BL21(DE3) cells were cultured in 1 L of LB-rich media (10 g/L tryptone, 5 g/L yeast extract and 10 g/L NaCl) supplemented with ampicillin (100 μg/mL). Expression of the target protein was achieved by inducing the E. coli culture with 0.1 mM of isopropyl-1-thio-β-D-galactopyranoside (IPTG) when OD600 nm reached 0.8-1.0, followed by incubating at 20° C. for 20 h with shaking at 250 rpm in a C25KC incubator shaker (New Brunswick Scientific, Edison, N.J.). Histidine-tagged target proteins were purified from cell lysate. To obtain the cell lysate, cell pellet harvested by centrifugation at 2,795 g for 50 min was resuspended (25 mL/L cell culture) in lysis buffer (Tris-HCl, 100 mM, pH 8.0 with 0.1% Triton X-100). Sonication protocol was 2 s (sonication)/3 s (rest) for a total of 6 min on ice. Lysed cells were centrifuged at 5,000 g for 50 min and the supernatant (lysate) was collected. Purification of histidine-tagged proteins from the lysate was achieved using a Ni′-resin column. The column was pre-equilibrated with 10 column volumes of binding buffer (5 mM imidazole, 0.5 M NaCl, 50 mM Tris-HCl, pH 7.5). The lysate was then loaded, and the column was washed with 10 column volumes of binding buffer and 10 column volumes of washing buffer (16 mM imidazole, 0.5 M NaCl, 50 mM Tris-HCl, pH 7.5). The target protein was eluted with Tris-HCl buffer (50 mM, pH 7.5) containing imidazole (200 mM) and NaCl (0.5 M). The fractions containing the purified enzymes were collected, and stored at 4° C.

[7] = Isoelectric point (pI); assay type: physicochemical
[8] = Coupled-enzyme reverse glycosylation assay with NmLgtA and LacβMU; assay type: biochemical; conditions: His6-Δ80PmHS2 +, UDP-GlcNAc −
Method: Coupled-enzyme reverse glycosylation assay. […] Reactions were stopped by heating reaction mixtures at 70° C. for 10 min followed by incubation on ice for 30 min and centrifuged at 11,337 g for 15 min.

[9] = Relative activity comparison with acceptor GlcNAcαProNHFmoc and UDP-GlcA; assay type: biochemical; conditions: enzyme 1.5 mg/mL; percentage conversion, 30 min, HPLC
Method: as §1

B1: His6-Δ80PmHS2: N-terminal His6-tagged and N-terminal 80 amino acid-truncated PmHS2 (SEQ ID NO:3) (protein)
chain: MGSSHHHHHHSFEKIYTYNQALEAKLEKDKQTTSITDLYNEVAKSDLGLVKETNSANPLVSIIMTSHNTAQFIEASINSLLLQTYKNIEIIIVDDDSSDNTFEIASRIANTTSKVRVFRLNSNLGTYFAKNTGILKSKGDIIFFQDSDDVCHHERIERCVNILLANKETIAVRCAYSRLAPETQHIIKVNNMDYRLGFITLGMHRKVFQEIGFFNCTTKGSDDEFFHRIAKYYGKEKIKNLLLPLYYNTMRENSLFTDMVEWIDNHNIIQKMSDTRQHYATLFQAMHNETASHDFKNLFQFPRIYDALPVPQEMSKLSNPKIPVYINICSIPSRIAQLQRIIGILKNQCDHFHIYLDGYVEIPDFIKNLGNKATVVHCKDKDNSIRDNGKFILLEELIEKNQDGYYITCDDDIIYPSDYINTMIKKLNEYDDKAVIGLHGILFPSRMTKYFSADRLVYSFYKPLEKDKAVNVLGTGTVSFRVSLFNQFSLSDFTHSGMADIYFSLLCKKNNILQICISRPANWLTEDNRDSETLYHQYRDNDEQQTQLIMENGPWGYSSIYPLVKNHPKFTDLIPCLPFYFL
modifications: N-terminal His6 tag
efficiency of GlcAβProNHFmoc (O1) over GlcNAcαProNHFmoc as substrate in disaccharide production [1]: 130 fold | GlcNAcα1-4GlcAβProNHFmoc (%) ([1]; enzyme 0.06 mg/mL): 50.8 ± 6.0% | GlcNAcα1-4GlcAβProNHFmoc (%) ([1]; enzyme 1.5 mg/mL): 100% | activity after lyophilization [2]: without loss of activity | O6 (%) ([3]; UDP 0 (nM)): 100% | O4 (%) ([3]; UDP 1 (nM)): 6.7% | O5 (%) ([3]; UDP 1 (nM)): 2.6% | O6 (%) ([3]; UDP 1 (nM)): 81.6% | O8 (%) ([3]; UDP 1 (nM)): 7.9% | O10 (%) ([3]; UDP 1 (nM)): 0.8% | O1 (%) ([3]; UDP 5 (nM)): 3.4% | O2 (%) ([3]; UDP 5 (nM)): 1.5% | O3 (%) ([3]; UDP 5 (nM)): 0.6% | O4 (%) ([3]; UDP 5 (nM)): 16.9% | O5 (%) ([3]; UDP 5 (nM)): 4.2% | O6 (%) ([3]; UDP 5 (nM)): 58.0% | O7 (%) ([3]; UDP 5 (nM)): 0.4% | O8 (%) ([3]; UDP 5 (nM)): 12.8% | O10 (%) ([3]; UDP 5 (nM)): 1.9% | O12 (%) ([3]; UDP 5 (nM)): 0.2% | O1 (%) ([3]; UDP 10 (nM)): 3.4% | O2 (%) ([3]; UDP 10 (nM)): 7.8% | O3 (%) ([3]; UDP 10 (nM)): 1.5% | O4 (%) ([3]; UDP 10 (nM)): 18.9% | O5 (%) ([3]; UDP 10 (nM)): 3.8% | O6 (%) ([3]; UDP 10 (nM)): 38.0% | O7 (%) ([3]; UDP 10 (nM)): 1.8% | O8 (%) ([3]; UDP 10 (nM)): 18.6% | O9 (%) ([3]; UDP 10 (nM)): 0.7% | O10 (%) ([3]; UDP 10 (nM)): 4.2% | O12 (%) ([3]; UDP 10 (nM)): 1.1% | increase of Tso (temperature at which the enzyme retains 50% of maximum activity) compared to WT [4]: approximately 7 °C | behaviour during dialysis [5]: remained soluble | expression level [6]: 60 to 80 mg/L | pI [7]: 6.61 | GlcNAcβ1-3LacβMU (%) ([8]; Reaction 1: NmLgtA +, UDP +): 9.7 ± 0.6% | LacβMU (%) ([8]; Reaction 1: NmLgtA +, UDP +): 90.3 ± 0.6% | O2 (%) ([8]; Reaction 1: NmLgtA +, UDP +): 9.3% | O3 (%) ([8]; Reaction 1: NmLgtA +, UDP +): 1.0% | O4 (%) ([8]; Reaction 1: NmLgtA +, UDP +): 16.2% | O5 (%) ([8]; Reaction 1: NmLgtA +, UDP +): 4.4% | O6 (%) ([8]; Reaction 1: NmLgtA +, UDP +): 36.2% | O7 (%) ([8]; Reaction 1: NmLgtA +, UDP +): 3.0% | O8 (%) ([8]; Reaction 1: NmLgtA +, UDP +): 20.4% | O9 (%) ([8]; Reaction 1: NmLgtA +, UDP +): 0.6% | O10 (%) ([8]; Reaction 1: NmLgtA +, UDP +): 7.3% | O12 (%) ([8]; Reaction 1: NmLgtA +, UDP +): 1.7% | LacβMU (%) ([8]; Reaction 2: NmLgtA −, UDP +): 100% | O2 (%) ([8]; Reaction 2: NmLgtA −, UDP +): 11.4% | O3 (%) ([8]; Reaction 2: NmLgtA −, UDP +): 0.7% | O4 (%) ([8]; Reaction 2: NmLgtA −, UDP +): 23.7% | O5 (%) ([8]; Reaction 2: NmLgtA −, UDP +): 5.1% | O6 (%) ([8]; Reaction 2: NmLgtA −, UDP +): 35.1% | O7 (%) ([8]; Reaction 2: NmLgtA −, UDP +): 1.2% | O8 (%) ([8]; Reaction 2: NmLgtA −, UDP +): 15.8% | O9 (%) ([8]; Reaction 2: NmLgtA −, UDP +): 0.5% | O10 (%) ([8]; Reaction 2: NmLgtA −, UDP +): 5.1% | O12 (%) ([8]; Reaction 2: NmLgtA −, UDP +): 1.2% | LacβMU (%) ([8]; Reaction 4: NmLgtA +, UDP −): 100% | O6 (%) ([8]; Reaction 4: NmLgtA +, UDP −): 100% | GlcAβ1-4GlcNAcαProNHFmoc (%) [9]: 9.8 ± 0.4%

B2: His6-PmHS2: N-terminal His6-tagged wild-type Pasteurella multocida heparosan synthase 2 (SEQ ID NO:6) (protein)
chain: MGSSHHHHHHSSGLVPRGSHMKGKKEMTQKQMTKNPPQHEKENELNTFQNKIDSLKTTLNKDIISQQTLLAKQDSKHPLSESLENENKLLLKQLQLVLQEFEKIYTYNQALEAKLEKDKQTTSITDLYNEVAKSDLGLVKETNSANPLVSIIMTSHNTAQFIEASINSLLLQTYKNIEIIIVDDDSSDNTFEIASRIANTTSKVRVFRLNSNLGTYFAKNTGILKSKGDIIFFQDSDDVCHHERIERCVNILLANKETIAVRCAYSRLAPETQHIIKVNNMDYRLGFITLGMHRKVFQEIGFFNCTTKGSDDEFFHRIAKYYGKEKIKNLLLPLYYNTMRENSLFTDMVEWIDNHNIIQKMSDTRQHYATLFQAMHNETASHDFKNLFQFPRIYDALPVPQEMSKLSNPKIPVYINICSIPSRIAQLQRIIGILKNQCDHFHIYLDGYVEIPDFIKNLGNKATVVHCKDKDNSIRDNGKFILLEELIEKNQDGYYITCDDDIIYPSDYINTMIKKLNEYDDKAVIGLHGILFPSRMTKYFSADRLVYSFYKPLEKDKAVNVLGTGTVSFRVSLFNQFSLSDFTHSGMADIYFSLLCKKNNILQICISRPANWLTEDNRDSETLYHQYRDNDEQQTQLIMENGPWGYSSIYPLVKNHPKFTDLIPCLPFYFL
modifications: N-terminal His6 tag
efficiency of GlcAβProNHFmoc (O1) over GlcNAcαProNHFmoc as substrate in disaccharide production [1]: 157 fold | GlcNAcα1-4GlcAβProNHFmoc (%) ([1]; enzyme 0.06 mg/mL): 64.5 ± 1.0% | GlcNAcα1-4GlcAβProNHFmoc (%) ([1]; enzyme 1.5 mg/mL): 100% | O6 (%) ([3]; UDP 0 (nM)): 100% | O1 (%) ([3]; UDP 1 (nM)): 3.3% | O2 (%) ([3]; UDP 1 (nM)): 2.7% | O3 (%) ([3]; UDP 1 (nM)): 1.4% | O4 (%) ([3]; UDP 1 (nM)): 9.6% | O5 (%) ([3]; UDP 1 (nM)): 3.0% | O6 (%) ([3]; UDP 1 (nM)): 64.2% | O8 (%) ([3]; UDP 1 (nM)): 13.5% | O10 (%) ([3]; UDP 1 (nM)): 1.9% | O1 (%) ([3]; UDP 5 (nM)): 3.9% | O2 (%) ([3]; UDP 5 (nM)): 5.5% | O3 (%) ([3]; UDP 5 (nM)): 1.1% | O4 (%) ([3]; UDP 5 (nM)): 8.8% | O5 (%) ([3]; UDP 5 (nM)): 4.8% | O6 (%) ([3]; UDP 5 (nM)): 52.3% | O7 (%) ([3]; UDP 5 (nM)): 0.4% | O8 (%) ([3]; UDP 5 (nM)): 16.0% | O10 (%) ([3]; UDP 5 (nM)): 5.7% | O12 (%) ([3]; UDP 5 (nM)): 0.7% | O1 (%) ([3]; UDP 10 (nM)): 3.1% | O2 (%) ([3]; UDP 10 (nM)): 9.0% | O3 (%) ([3]; UDP 10 (nM)): 0.6% | O4 (%) ([3]; UDP 10 (nM)): 17.7% | O5 (%) ([3]; UDP 10 (nM)): 9.1% | O6 (%) ([3]; UDP 10 (nM)): 36.2% | O7 (%) ([3]; UDP 10 (nM)): 1.1% | O8 (%) ([3]; UDP 10 (nM)): 16.3% | O9 (%) ([3]; UDP 10 (nM)): 0.4% | O10 (%) ([3]; UDP 10 (nM)): 4.6% | O12 (%) ([3]; UDP 10 (nM)): 1.3% | behaviour during dialysis [5]: precipitated easily during dialysis | expression level [6]: 17 to 20 mg/L | pI [7]: 6.83 | GlcAβ1-4GlcNAcαProNHFmoc (%) [9]: 10.3 ± 0.3%
